The values below come from patent US6747136 (KAROLINA INNOVATIONS, dated 2004).

The target of test [1] is T1, tetanus toxoid (UniProt P04958 2-1315).
T1 construct: also called TT
Briefly: ELISA, coated tetanus toxoid 1 ug/ml. (ELISA stands for enzyme-linked immunosorbent assay.)

The target in test [2] is T1, tetanus toxoid. Put plainly: ELISA, […] (100 ug/ml) […].

T1 sequence (P04958 2-457 limits assumed, chain 1 of 2): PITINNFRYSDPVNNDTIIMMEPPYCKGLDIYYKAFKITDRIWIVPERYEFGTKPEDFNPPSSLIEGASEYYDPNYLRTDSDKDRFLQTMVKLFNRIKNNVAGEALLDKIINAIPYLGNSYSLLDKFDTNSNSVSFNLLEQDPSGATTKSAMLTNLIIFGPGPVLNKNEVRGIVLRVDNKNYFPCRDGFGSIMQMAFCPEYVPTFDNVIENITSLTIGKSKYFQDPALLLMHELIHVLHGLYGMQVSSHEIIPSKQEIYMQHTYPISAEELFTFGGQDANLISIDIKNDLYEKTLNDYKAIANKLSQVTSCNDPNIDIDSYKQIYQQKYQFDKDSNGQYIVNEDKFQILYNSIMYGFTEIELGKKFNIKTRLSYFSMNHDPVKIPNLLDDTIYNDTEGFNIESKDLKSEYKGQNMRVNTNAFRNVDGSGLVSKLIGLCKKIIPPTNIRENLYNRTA
T1 sequence (P04958 458-1315 limits assumed, chain 2 of 2): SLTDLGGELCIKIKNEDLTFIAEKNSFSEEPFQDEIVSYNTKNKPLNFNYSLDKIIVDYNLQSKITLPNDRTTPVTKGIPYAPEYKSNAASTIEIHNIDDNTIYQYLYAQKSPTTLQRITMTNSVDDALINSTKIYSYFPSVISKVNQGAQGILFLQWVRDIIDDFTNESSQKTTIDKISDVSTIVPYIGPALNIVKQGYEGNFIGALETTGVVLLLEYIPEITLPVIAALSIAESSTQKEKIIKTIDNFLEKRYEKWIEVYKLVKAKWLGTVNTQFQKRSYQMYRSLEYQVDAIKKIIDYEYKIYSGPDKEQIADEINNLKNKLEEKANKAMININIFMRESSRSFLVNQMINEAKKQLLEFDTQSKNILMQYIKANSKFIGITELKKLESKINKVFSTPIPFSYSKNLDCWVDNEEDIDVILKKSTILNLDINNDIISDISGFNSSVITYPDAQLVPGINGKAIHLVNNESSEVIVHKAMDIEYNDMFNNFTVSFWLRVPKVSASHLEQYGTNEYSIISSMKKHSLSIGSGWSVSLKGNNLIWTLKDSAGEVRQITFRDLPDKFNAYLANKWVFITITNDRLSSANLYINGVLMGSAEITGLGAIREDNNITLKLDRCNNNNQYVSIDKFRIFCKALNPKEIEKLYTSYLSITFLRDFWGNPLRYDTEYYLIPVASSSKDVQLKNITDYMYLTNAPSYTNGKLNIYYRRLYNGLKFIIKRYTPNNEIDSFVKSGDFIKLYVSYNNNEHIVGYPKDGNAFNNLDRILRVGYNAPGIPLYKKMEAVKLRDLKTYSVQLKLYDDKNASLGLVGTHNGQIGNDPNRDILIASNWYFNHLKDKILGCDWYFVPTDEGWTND

B1: Fab molecule clone 1:5 (Fab, V domains shown)
VH: VQLLEQSGAEVRKPGSSVKVSCKASGGTFSGHVITWVRQAPGQGLEWMGESIPIFGSANYAQNYAQKFRDRVSIIADESTSTSFIELSNLRSDDTAVYYCARDPPRYCSAGRCYPGFFQQWGQGTLVTVSS
VL: AELTQSPGTLSLSPGERATLSCRASQSVSSNYLAWYQQRPGQAPRLLIYGASSRATGIPDRFSGSGSGTDFTLTISRLEPEDFAVYYCQLYGNSRWTFGQGTKVEIK
Regarding B1, in the test with tetanus toxoid [1], the binding result was “no binding”.

B2: Fab molecule clone L3 (Fab, V domains shown)
VH: EVQLLESGGGVVQPGRSLRLSCAASGFTFKTYGMHWVRQAPGKGLEWVAGISFDGSNQYYADSVKGRFIVSRDNSRDTVFLQMSSLRLEDTAVYYCATEGSPFGSIKGRYYLENWGQGTLVTVSS
VL: AELTQSPATLSVSPGERASLSCRASQSVGNNLAWYQQKPGQAPRLLIYGGNTRATGTPDRFSGSGSGTEFTLTISSLQSEDFAVYFCQHYSTWPLTFGGGTKVEFK
Consider B2, for which the “OD405 nm (ELISA reactivity)” value with tetanus toxoid [2] came out at 0.313 OD405 nm. Besides, the binding result with tetanus toxoid [1] was “no binding”.
